These results are taken from article PMC6136348, “In the quest for new targets for pathogen eradication: the adenylosuccinate synthetase from the bacterium Helicobacter pylori” (Journal of Enzyme Inhibition and Medicinal Chemistry, 2018).

Substrate in data set [1]: N[C@@H](CC(=O)O)C(=O)O
Briefly: Michaelis-Menten kinetics of the purified enzyme (Km). The note with it: Mg2+. The data set is classed as biochemical, Helicobacter pylori.

Substrate in data set [2]: Nc1nc2c(ncn2[C@@H]2O[C@H](COP(=O)(O)OP(=O)(O)OP(=O)(O)O)[C@@H](O)[C@H]2O)c(=O)[nH]1
The description is as above. The note with it: Mg2+. The data set is classed as biochemical, Helicobacter pylori.

B1: adenylosuccinate synthetase (AdSS) (Helicobacter pylori 26695) (protein)
chain: MADVVVGIQWGDEGKGKIVDRIAKDYDFVVRYQGGHNAGHTIVHKGVKHSLHLMPSGVLYPKCKNIISSAVVVSVKDLCEEISAFEDLENRLFVSDRAHVILPYHAKKDAFKEKSQNIGTTKKGIGPCYEDKMARSGIRMGDLLDDKILEEKLNAHFKAIEPFKKAYDLGENYEKDLMGYFKTYAPKICPFIKDTTSMLIEANQKGEKILLEGAQGTLLDIDLGTYPFVTSSNTTSASACVSTGLNPKAINEVIGITKAYSTRVGNGPFPSEDTTPMGDHLRTKGAEFGTTTKRPRRCGWLDLVALKYACALNGCTQLALMKLDVLDGIDAIKVCVAYERKGERLEIFPSDLKDCVPIYQTFKGWEKSVGVRKLDDLEPNVREYIRFIEKEVGVKIRLISTSPEREDTIFL
notes: recombinant protein expressed from pET21b-HPpurA
For the protein B1, the Km (commonly the concentration of substrate that gives half-maximal velocity) is 125.4 ± 7.7 µM in data set [1] and 8.7 ± 0.6 µM in data set [2]. The values for the maximum rate (Vmax) in data set [1] and in data set [2] were 1.1 µmol/min/mg and 1.42 µmol/min/mg, respectively.
